Consider 2 molecules from paper PMC10470531, “RecJ3/4-aRNase J form a Ubl-associated nuclease complex functioning in survival against DNA damage in Haloferax volcanii” (mBio, 2023).

Data set [1] has as its target His6-RecJ3 (H. volcanii) (UniProt D4GVJ5). Description: affinity purification with mass spectrometry; tandem affinity purification (HisTrap, then Strep-Tactin) of His6-RecJ3 and aRNase J-StrepII from H. volcanii HJ02-pJAM4252 against the empty vector; 2 M NaCl buffers; LC-MS/MS of the liquid fractions and AQUA-based MS/MS (SRM with heavy peptides) for the stoichiometry.

The target of data set [2] is aRNase J-StrepII (H. volcanii) (UniProt D4GW49). The description is as above.
The target of data set [3] is His6-RecJ3 (H. volcanii) (UniProt D4GVJ5). Nature of the data set: SEC; HisTrap-bound, Strep-Tactin flow-through fractions from H. volcanii HJ07; Superdex 200 Increase 10/300 GL; 50 mM HEPES pH 7.5, 2 M NaCl, 1 mM DTT, 5 mM MnCl2, 5 mM MgCl2, 10% glycerol; fractions on reducing SDS-PAGE.
Sequence of His6-RecJ3 (H. volcanii) (D4GVJ5 entry or part of it): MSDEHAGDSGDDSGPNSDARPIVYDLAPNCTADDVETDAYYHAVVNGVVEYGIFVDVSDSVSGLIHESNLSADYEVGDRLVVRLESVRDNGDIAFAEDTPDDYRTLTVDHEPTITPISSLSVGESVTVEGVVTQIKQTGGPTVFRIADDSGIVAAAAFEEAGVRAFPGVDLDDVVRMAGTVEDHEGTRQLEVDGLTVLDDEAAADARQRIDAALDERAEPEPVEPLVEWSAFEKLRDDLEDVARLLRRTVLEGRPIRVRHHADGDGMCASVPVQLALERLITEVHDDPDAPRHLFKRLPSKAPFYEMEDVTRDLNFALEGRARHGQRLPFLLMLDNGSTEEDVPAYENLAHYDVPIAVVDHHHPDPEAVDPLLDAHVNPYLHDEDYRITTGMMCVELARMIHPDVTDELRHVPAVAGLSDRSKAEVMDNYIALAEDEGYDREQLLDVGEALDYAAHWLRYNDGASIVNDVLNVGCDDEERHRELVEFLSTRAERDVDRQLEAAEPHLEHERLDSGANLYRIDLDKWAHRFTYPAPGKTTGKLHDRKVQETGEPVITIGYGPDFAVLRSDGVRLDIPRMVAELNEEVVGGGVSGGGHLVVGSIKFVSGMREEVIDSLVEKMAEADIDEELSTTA
Data set [4] concerns the molecule itself. Description: SEC; aRNase J-StrepII purified by Strep-Tactin from H. volcanii HS01-pJAM1406 (ΔrecJ3); Superdex 200 Increase 10/300 GL; 50 mM HEPES pH 7.5, 2 M NaCl, 1 mM DTT, 5 mM MnCl2, 10% glycerol; column calibrated with mass standards. Background: In gel filtration, larger molecules generally elute earlier.

Take RecJ4 (natural protein): the stoichiometry N (RecJ4 per RecJ3) in the data set with His6-RecJ3 (H. volcanii) [1] and with His6-RecJ3 (H. volcanii) [3] was 1 each time. In data set [2], this molecule gave a stoichiometry N (RecJ4 per aRNase J) of 2.

B1: aRNase J-StrepII (natural protein, H. volcanii, UniProt D4GW49 1-450, looked up)
chain: MEIEIATIGGYEEVGRQMTAVRAGDDVVVFDMGLNLSQVLIHDNVETEKMHSLDLIDMGAIPDDRVMSDLEGDVQAIVPTHGHLDHIGAISKLAHRYDAPVVATPFTIELVKQQIEGENKFNVNNDLVKMEAGETMSIGDSGNVELEFVHVTHSIIDAINPVVHTPEGAVVYGLDKRMDHSPVLEDPIDMKRFREIGREGNGVLAYIEDCTNAGRKGRTPSESVARRHLKDVMTSVEDYDGGIVATTFSSHISRVSSLVEFAKDIGRQPVLLGRSMEKYSGTAERLGFVDLPDDLGMYGHRKSVDRTFKRIMKEGKENYLPIVTGHQGEPRAMLTRMGRGETPYEIDDGDKVIFSARVIPEPTNEGQRYQSERLLRMQGARIYDEIHVSGHLREEGHYEMLQALQPQHVIPAHQNLKGFAPYVDLAESQGYALGRDLHVTRNGNMIQLVE
notes: archaeal RNase J of Haloferax volcanii, amplified with primers HVO_2724 NdeI and HVO_2724 KpnI; A homodimer when purified from the ΔrecJ3 mutant (SEC); in the RecJ3/4-aRNase J complex the stoichiometry is 2:2:1; also called aRNase J with a C-terminal StrepII tag; aRNase J homodimer; source: H. volcanii H26- or HS01-pJAM1406, HJ02-, HJ04- or HJ07-pJAM4252, in lysate; purified (Strep-Tactin, SEC); …
As for B1, the stoichiometry N (as a rule, the number of molecules, sites or subunits per partner or assembly) in data set [4] is 2.
